Tests used:
[1] = target: IGF affinity column loaded with BP-53 (BP-53 non-covalently bound to agarose-IGF) (human) (UniProt P17936); assay: affinity chromatography of DEAE-Sephadex ALS fractions on the IGF column loaded with BP-53
[2] = target: endogenous BP-53 of human serum (human) (UniProt P17936); assay: DEAE-Sephadex peaks A and B mixed for 60 min at 22° C, Superose-12, BP-53 RIA
[3] = target: acid-labile sub-unit (ALS) of insulin like growth factor binding protein complex (human) (UniProt P35858); assay: competition of acidified-neutralized serum with cross-linked BP-53-IGF-I tracer in the routine ALS assay
Chain of acid-labile sub-unit (ALS) of insulin like growth factor binding protein complex (human) (P35858 28-605, one chain of several): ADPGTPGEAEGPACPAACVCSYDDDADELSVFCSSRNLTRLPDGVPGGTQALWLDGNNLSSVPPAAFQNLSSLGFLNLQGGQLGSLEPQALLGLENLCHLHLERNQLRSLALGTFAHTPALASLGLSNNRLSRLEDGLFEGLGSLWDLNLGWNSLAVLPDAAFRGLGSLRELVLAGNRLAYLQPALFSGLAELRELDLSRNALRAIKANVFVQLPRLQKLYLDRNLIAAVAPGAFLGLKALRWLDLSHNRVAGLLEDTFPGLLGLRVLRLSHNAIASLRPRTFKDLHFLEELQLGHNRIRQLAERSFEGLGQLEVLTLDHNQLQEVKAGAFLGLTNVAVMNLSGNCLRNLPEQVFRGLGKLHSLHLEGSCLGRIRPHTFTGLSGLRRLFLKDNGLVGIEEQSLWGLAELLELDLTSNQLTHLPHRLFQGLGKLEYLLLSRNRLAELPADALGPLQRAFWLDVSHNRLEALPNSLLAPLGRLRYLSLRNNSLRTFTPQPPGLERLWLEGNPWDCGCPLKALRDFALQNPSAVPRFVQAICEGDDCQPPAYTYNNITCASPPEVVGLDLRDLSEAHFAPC

Chain of acid-labile sub-unit (ALS) of insulin like growth factor binding protein complex (P35858 28-605, one chain of several): as above

Substance: acid-labile sub-unit (ALS) of insulin like growth factor binding protein complex (from UniProt P35858 28-605)
- percent of ALS activity retained [1]: > 90%
- percent of BP-53 activity shifted from 30-60K to 150K [2]: > 50%

Substance: endogenous BP-53 of human serum (from UniProt P17936 28-291)
- IC50 [3]: 0.2 to 0.25 µg/mL
- concentration for full displacement [3]: 1 µg/mL
